What was measured:
[1] = target: T1, 4H918-bA; assay: two-hybrid library CCNG1;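 further: natural log of median RNA to DNA barcode read ratio; higher means stronger binding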
T1 chain: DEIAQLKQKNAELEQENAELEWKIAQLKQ

[2] = target: T2, 4H4001-bA; assay: two-hybrid library CCNG1;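 further: natural log of median RNA to DNA barcode read ratio; higher means stronger binding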
T2 chain: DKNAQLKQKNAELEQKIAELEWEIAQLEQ

[3] = target: T3, 4H607-bA; assay: two-hybrid library CCNG1;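 further: natural log of median RNA to DNA barcode read ratio; higher means stronger binding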
T3 chain: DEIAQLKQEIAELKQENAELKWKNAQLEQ

[4] = target: T4, 4H462-bA; assay: two-hybrid library CCNG1;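 further: natural log of median RNA to DNA barcode read ratio; higher means stronger binding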
T4 chain: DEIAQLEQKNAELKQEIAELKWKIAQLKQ

[5] = target: T5, 4H2610-bA; assay: two-hybrid library CCNG1
T5 chain: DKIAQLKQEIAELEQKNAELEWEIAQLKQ

[6] = target: T6, 4H370-bA; assay: two-hybrid library CCNG1
T6 chain: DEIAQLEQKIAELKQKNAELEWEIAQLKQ

[7] = target: T7, 4H568-bA; assay: two-hybrid library CCNG1
T7 chain: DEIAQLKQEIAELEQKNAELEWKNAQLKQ

[8] = target: T8, 4H2667-bA; assay: two-hybrid library CCNG1
T8 chain: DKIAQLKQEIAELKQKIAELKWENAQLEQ

[9] = target: T9, 4H967-bA; assay: two-hybrid library CCNG1
T9 chain: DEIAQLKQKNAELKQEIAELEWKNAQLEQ

[10] = target: T10, 4H3189-bA; assay: two-hybrid library CCNG1
T10 chain: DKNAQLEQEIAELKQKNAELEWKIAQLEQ

[11] = target: T11, 4H953-bA; assay: two-hybrid library CCNG1
T11 chain: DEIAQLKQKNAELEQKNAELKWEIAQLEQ

[12] = target: T12, 4H3606-bA; assay: two-hybrid library CCNG1
T12 chain: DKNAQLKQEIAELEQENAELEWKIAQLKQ

[13] = target: T13, 4H2697-bA; assay: two-hybrid library CCNG1
T13 chain: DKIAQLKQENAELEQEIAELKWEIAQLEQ

[14] = target: T14, 4H883-bA; assay: two-hybrid library CCNG1
T14 chain: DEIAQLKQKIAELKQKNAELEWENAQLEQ

[15] = target: T15, 4H72-bA; assay: two-hybrid library CCNG1
T15 chain: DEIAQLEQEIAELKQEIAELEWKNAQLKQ

[16] = target: T16, 4H687-bA; assay: two-hybrid library CCNG1
T16 chain: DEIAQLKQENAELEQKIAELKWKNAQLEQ

[17] = target: T17, 4H797-bA; assay: two-hybrid library CCNG1
T17 chain: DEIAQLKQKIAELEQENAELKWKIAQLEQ

[18] = target: T18, 4H331-bA; assay: two-hybrid library CCNG1
T18 chain: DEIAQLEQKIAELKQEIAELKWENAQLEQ

[19] = target: T19, 4H3843-bA; assay: two-hybrid library CCNG1
T19 chain: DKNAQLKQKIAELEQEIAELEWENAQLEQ

[20] = target: T20, 4H3782-bA; assay: two-hybrid library CCNG1
T20 chain: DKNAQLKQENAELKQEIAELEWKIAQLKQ

[21] = target: T21, APC5009-AA; assay: two-hybrid library CCmax; settings: mean of both orientations
T21 chain: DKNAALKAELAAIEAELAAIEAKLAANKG

[22] = target: T22, APC5531-AA; assay: two-hybrid library CCmax; settings: mean of both orientations
T22 chain: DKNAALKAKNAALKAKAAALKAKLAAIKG

[23] = target: T23, APC542-AA; assay: two-hybrid library CCmax; settings: mean of both orientations
T23 chain: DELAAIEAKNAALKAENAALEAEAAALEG

[24] = target: T24, APC2811-AA; assay: two-hybrid library CCmax; settings: mean of both orientations
T24 chain: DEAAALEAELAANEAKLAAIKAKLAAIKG

[25] = target: T25, APC9141-AA; assay: two-hybrid library CCmax; settings: mean of both orientations
T25 chain: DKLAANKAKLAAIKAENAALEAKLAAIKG

[26] = target: T26, APC8516-AA; assay: two-hybrid library CCmax; settings: mean of both orientations
T26 chain: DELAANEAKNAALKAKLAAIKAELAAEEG

[27] = target: T27, APC2543-AA; assay: two-hybrid library CCmax; settings: mean of both orientations
T27 chain: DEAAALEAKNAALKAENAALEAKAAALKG

[28] = target: T28, APC6088-AA; assay: two-hybrid library CCmax; settings: mean of both orientations
T28 chain: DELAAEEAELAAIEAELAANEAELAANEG

[29] = target: T29, APC2474-AA; assay: two-hybrid library CCmax; settings: mean of both orientations
T29 chain: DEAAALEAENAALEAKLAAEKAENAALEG

[30] = target: T30, APC2556-AA; assay: two-hybrid library CCmax; settings: mean of both orientations
T30 chain: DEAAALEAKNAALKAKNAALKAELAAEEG

[31] = target: T31, APC7524-AA; assay: two-hybrid library CCmax; settings: mean of both orientations
T31 chain: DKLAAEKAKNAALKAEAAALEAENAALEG

[32] = target: T32, APC3881-AA; assay: two-hybrid library CCmax; settings: mean of both orientations
T32 chain: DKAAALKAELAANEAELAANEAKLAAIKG

[33] = target: T33, APC4100-AA; assay: two-hybrid library CCmax; settings: mean of both orientations
T33 chain: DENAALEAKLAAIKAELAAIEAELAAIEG

[34] = target: T34, APC3354-AA; assay: two-hybrid library CCmax; settings: mean of both orientations
T34 chain: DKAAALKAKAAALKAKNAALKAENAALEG

[35] = target: T35, APC9806-AA; assay: two-hybrid library CCmax; settings: mean of both orientations
T35 chain: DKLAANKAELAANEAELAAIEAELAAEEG

[36] = target: T36, APC9182-AA; assay: two-hybrid library CCmax; settings: mean of both orientations
T36 chain: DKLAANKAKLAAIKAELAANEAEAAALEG

[37] = target: T37, APC4336-AA; assay: two-hybrid library CCmax; settings: mean of both orientations
T37 chain: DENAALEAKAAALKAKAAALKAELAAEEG

[38] = target: T38, APC3265-AA; assay: two-hybrid library CCmax; settings: mean of both orientations
T38 chain: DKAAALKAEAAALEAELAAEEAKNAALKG

[39] = target: T39, APC2375-AA; assay: two-hybrid library CCmax
T39 chain: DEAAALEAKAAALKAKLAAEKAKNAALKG

[40] = target: T40, APC9291-AA; assay: two-hybrid library CCmax; settings: mean of both orientations
T40 chain: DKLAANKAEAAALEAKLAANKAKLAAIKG

[41] = target: T41, APC8401-AA; assay: two-hybrid library CCmax; settings: mean of both orientations
T41 chain: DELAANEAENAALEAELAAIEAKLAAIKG

[42] = target: T42, APC2981-AA; assay: two-hybrid library CCmax; settings: mean of both orientations
T42 chain: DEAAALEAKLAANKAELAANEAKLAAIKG

[43] = target: T43, APC2724-AA; assay: two-hybrid library CCmax; settings: mean of both orientations
T43 chain: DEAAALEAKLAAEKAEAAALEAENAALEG

[44] = target: T44, APC3323-AA; assay: two-hybrid library CCmax; settings: mean of both orientations
T44 chain: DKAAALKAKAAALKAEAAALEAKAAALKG

With DKIAQLKQEIAELEQKNAELEWEIAQLKQ [4H2610-bA] the interaction score [1] was 1.13, the interaction score [2] was 0.0746 and the interaction score [3] was -1.15. It also gave an interaction score [4] of 1.76, an interaction score [5] of -0.2 and an interaction score [6] of -1.17. It also gave an interaction score [7] of -0.602, an interaction score [8] of 0.718 and an interaction score [9] of -1.02. It also gave an interaction score [10] of -0.366, an interaction score [11] of 0.322 and an interaction score [12] of 0.322. For the same binder, the interaction score [13] was 0.713, the interaction score [14] was 0.538 and the interaction score [15] was -0.563. It also gave an interaction score [16] of -0.571, an interaction score [17] of -0.486 and an interaction score [18] of -0.211. It also gave an interaction score [19] of 0.444 and an interaction score [20] of -0.515.

Work on DEAAALEAKAAALKAKLAAEKAKNAALKG [APC2375-AA] yielded an interaction score [21] of -0.913, an interaction score [22] of -1.77 and an interaction score [23] of -1.83. The interaction score [24] was -1.74, the interaction score [25] was -1.6 and the interaction score [26] was -1.58. For the same binder, the interaction score [27] was -1.57, the interaction score [28] was -1.06 and the interaction score [29] was -1.59. It also gave an interaction score [30] of -1.42, an interaction score [31] of -1.49 and an interaction score [32] of -1.74. For the same binder, the interaction score [33] was -1.47, the interaction score [34] was -1.67 and the interaction score [35] was -1.72. For the same binder, the interaction score [36] was -1.83, the interaction score [37] was -1.65 and the interaction score [38] was -1.44. It also gave an interaction score [39] of -1.68, an interaction score [40] of -1.88 and an interaction score [41] of -0.731. It also gave an interaction score [42] of -1.45, an interaction score [43] of -1.62 and an interaction score [44] of -1.82.

Source: paper PMC10397247
